From publication PMC8245568, “Xyloglucan processing machinery in Xanthomonas pathogens and its role in the transcriptional activation of virulence factors” (Nature Communications, 2021) come the findings set out here.

Data set [1] concerns the molecule itself. The data set can be described thus: SAXS; protein samples at 1, 3, 5 and 10 mg mL^-1; D01A-SAXS2 beamline (LNLS); molecular weight by SAXSMoW.
Data set [2] deals with the molecule itself. Put plainly: SEC-MALS; 25 °C; Superdex 200 HR 10/300 GL; 250 μL of protein at 50 μmol L^-1 injected; 20 mmol L^-1 HEPES pH 7.5, 150 mmol L^-1 NaCl.

B1: XacAfc95, GH95 α-1,2-L-fucosidase encoded by XAC1774 of Xanthomonas citri pv. citri 306 (enzyme)
chain: not shown
notes: A signal peptide was probably left out of the construct (surmise); also called GH95 α-L-fucosidase; source: E. coli, purified (two chromatographic steps)
B1: in data set [1], the “stoichiometry N” value was found to be 2.

B2: XacGalD, GH35 β-galactosidase encoded by XAC1772 of Xanthomonas citri pv. citri 306, wild type (enzyme)
chain: not shown
notes: source: E. coli, purified (two chromatographic steps)
For the protein B2, the “stoichiometry N” value in data set [2] was found to be 4.

Broadly, the stoichiometry N is a count of units in the complex or per binding partner.
